Substitutions are numbered along the chain they refer to. In names and notes the source's numbering stands.

The text below walks through data of US20070172470A1, “Phosphatase regulation of nucleic acid transcription” (The Regents of the University of California, priority 2003, published 2007).

Series [1] is classed as biochemical. As to conditions: PNθP as substrate.
In a further series the target is T1, RNAP IIO (Bos taurus, UniProt G3MZY8).
T1 construct: Calf thymus RNAP IIA was purified; from tissue; host or cells: calf thymus
The experiment in a line: CTD phosphatase assay with RNAP IIO as substrate. Type of series: biochemical, calf. To be noted: substrates prepared by MAPK2/ERK2. On the procedure:
FIGS. 2C and 2D show a CTD phosphatase assay of FCP1 and SCP1 on GST-CTDo and RNAP IIO prepared by MAPK2/ERK2. Increasing amounts of FCP1 or GST-SCP1 214 were assayed in the presence of 75 fmol GST-CTDo (lanes 1-6), 75 fmol RNAP IIO (lanes 7-12), or 75 fmol GST-CTDo and 75. fmol RNAP IIO (lanes 13-18). Both GST-CTDo and RNAP IIO substrates were prepared by the in vitro phosphorylation of CKII-labeled GST-CTDa or RNAP IIA by MAPK2/ERK2. All reactions were carried out in the presence of 7 pmol RAP74. CTD dephosphorylation of both GST-CTDo and RNAP IIO is shown by the increase in mobility of GST-CTDo to GST-CTDa and subunit IIo to IIa, respectively. The difference in the intensity of radiolabeled GST-CTDoand that of radiolabeled subunit IIo is not a reflection of a difference in the amount of substrates present, but of the higher efficiency with which CKII incorporates radiolabeled phosphates onto the most C-terminal serine of GST-CTDa compared to subunit. IIa.
Increasing amounts of GST-SCP1 214 were assayed in the presence of 3.7 fmol RNAP IIO prepared by CTDK1/CTDK2, TFIIH, P-TEFb, MAPK2/ERK2 and Cdc2 kinase. All reactions were carried out in-the presence of 7 pmol. RAP74. CTD dephosphorylation of RNAP IIO isozymes. by qSTSCP1 214 is shown by an increase in mobility of subunit IIo to that of IIa. The results are summarized in the graph showing the percent of RNAP IIO remaining as a function of increasing SCP1 concentrations.
Preparation and Purification of ^32P-RNAP IIO Isozymess and ^32P-GST-CTDo: Calf thymus RNAP IIA was purified by the method of Hodo and Blatti (30) with modifications as described by Kang and Dahmus (31). Specific isozymes of ^32p-labeled RNAP IIO were prepared by phosphorylation at the most C-terminal serine (CKII site) in the largest subunit of purified RNAP IIA with recombinant CKII and […], followed by CTD phosphorylation in the presence of 2 mM ATP with either purified CTDK1/CTDK2, TFIIH, P-TEFb, recombinant MAPK2/ERK2 or recombinant Cdc2 kinase. The RNAP IIO isozymes were individually purified over a DE53 column with a step elution of 500 mM KCl (28). Because only the most C-terminal serine is labeled with ^32p and lies outside. the consensus repeat, dephosphorylation by CTD phosphatase results in an electrophoretic mobility shift in SDS-PAGE of subunit IIo to the position of subunit IIa without the loss of label. Similarly, ^32P-labeled GST-CTDo was prepared from GST-CTDa by CKII followed by MAPK2/ERK2. GST-CTDo was purified over a glutathione-agarose column with a step elution of 15 mM glutathione.
(§1) CTD phosphatase assays utilizing RNAP IIO and GST-CTDo as substrate were performed as described previously (32) with minor modifications. Reactions were performed in 20 μl of CTD phosphatase buffer (50 mM Tris-HCl, pH 7.9, 10 mM MgCl2, 20% glycerol, 0.025% Tween 80, 0.1 mM EDTA, 5 mM DTT) in the presence of 20 mM KCl. Each reaction contained specified amounts of GST-CTDo and/or RNAP IIO and was carried out in the presence of 7 pmol RAP74. Reactions were initiated by the addition of FCP1 or SCP1 and incubated at 30° C. for 30 minutes. Assays were terminated by the addition of 5× Laemmli buffer, and RNAP II subunits and GST-CTD were resolved on a 5% SDS-PAGE gel. The gel images were developed by autoradiography and scanned by Molecular Dynamics Image Scanner Storm 860 in the phosphor screen mode. Data were quantitatively analyzed by ImageQuant software.

Series [2] deals with ElALuc, pGL3-Luc and Gal4-TATA-Luc constructs. In words: Luciferase reporter assay, basal promoter activity. Type of series: cell-based, human. As to conditions: ElALuc, pGL3-Luc and Gal4-TATA-Luc constructs. From the text: (§2) Gal4-DNA binding domain-SCP1 fusion protein expression plasmids-were cotransfected in HEK293 cells with a Gal 4-TKLuc reporter plasmid and luciferase gene expression quantitated. In all panels, results of triplicate transfections are shown +/− SD. Data is expressed as fold-activation experimental/control). […] The indicated amounts of SCP1 or mutant SCP1 expression plasmids were cotransfected in HEK293 cells along with Gal 4-VP16 expression and Gal 4-TK-Luc reporter plasmids and luciferase activity was quantitated. […] The indicated receptor expression plasmids were cotransfected with their cognate promoter-reporter plasmids with or without SCP1 or mutant SCP1 expression plasmids. Cells were treated or untreated with receptor-specific ligands as described infra. […] The indicated concentrations of SCP1 and mutant SCP1 expression plasmids were cotransfected with LMX1 and E47 expression plasmids and the rat insulin 1 promoter-luciferase reporter gene. Luciferase activity was measured as described.
(§3) Tissue Culture and Transfections: Human 293, COS7 and CV1 cells were grown at 37° C. in DMEM supplemented with 10% normal calf serum (BRL). Sub-confluent cells were transfected in 6 well tissue culture dishes using Effectene (Qiagen) according to the manufacturer's instructions. Reporter and activator plasmids (100 ng each) and Flag SCP1 (80 ng) or its mutant were used per well. […]
A general note: In a reporter assay the amount or activity of a reporter protein is the signal.

In series [3] the test system is Gal 4-TK-Luc reporter stimulated by Gal 4-VP16. In words: Luciferase reporter assay, Gal 4-VP16 stimulated gene expression. Type of series: cell-based, human. As to conditions: HEK293 cells.
Excerpt: as §2, §3

In series [4] the test system is T3 receptor activity on DR+4 TRE-TK-Luc reporter. In words: Luciferase reporter assay, ligand-activated T3 receptor. Type of series: cell-based, human. To be noted: 100 nM T3, DR+4 TRE-TK-Luc.
Excerpt: as §2, §3

Series [5] has as its system glucocorticoid receptor activity on GRE-TK-Luc construct. In words: Luciferase reporter assay, dexamethasone-stimulated glucocorticoid receptor. Type of series: cell-based, human. As to conditions: 100 nM dexamethasone.
Excerpt: as §2, §3

Series [6] has as its system PPARγ receptor activity on PPARγ promoter response element. In words: Luciferase reporter assay, ligand-activated PPARγ receptor. Type of series: cell-based, human.
Excerpt: as §2, §3

The test system of series [7] is P19 mouse embryonic stem cells. The experiment in a line: Neuronal differentiation of P19 cells. Type of series: cell-based. To be noted: clonal P19 line, retinoic acid, selective medium. On the procedure: P19 cells, C, differentiated GFP expressing P19 cells; D, differentiated SCP1-expressing P19 cells; F, differentiated REST/NRSF-expressing P19 cells. Numbers of NLC per field are shown. *p=0.001 compared to WT 19 cells; **p=0.008 compared to WT P19 cell using student's t-test.
P19 stably expressing REST/NRSF.
These cell lines were maintained in α-MEM/10%FBS with […] G418. To induce neuronal differentiation, P19 cells were allowed to aggregate in bacterial grade petri-dishes (Fisher) at a seeding density of 1×10^5cells/ml in the presence of 1×10^−6M all-trans retinoic acid. After 3 days of aggregation, cells were dissociated into single cells by 0.05% trypsin-0.53 mM EDTA (Gibco). Trypsin was removed by centrifugation and the cells were plated in 6 cm tissue culture dishes (Nunc). at a density of 1×10^5 cells/cm^2 in Neurobasal medium/N2 supplement (Invitrogen) in the presence or absence of 1 μg/ml fibronectin (Invitrogen). The cells were cultured for 5 days after which average cell numbers/field were determined. Cells were either lysed to prepare total RNA (Rneasy kit, Qiagen) or stained with TuJ1 antibody (Babco).
For immunostaining, cells were fixed for 10 mins with 4% paraformaldehyde. TuJ1 antibody was used at 1:2000 and secondary antibody used was FITC-conjuagated anti-mouse (1:3000).

Another series deals with T2, SCP1 (Homo sapiens, UniProt Q9GZU7).
T2 construct: GST (N, cleaved yes); made in house
T2 sequence (Q9GZU7 1-260 isoform Q9GZU7-2): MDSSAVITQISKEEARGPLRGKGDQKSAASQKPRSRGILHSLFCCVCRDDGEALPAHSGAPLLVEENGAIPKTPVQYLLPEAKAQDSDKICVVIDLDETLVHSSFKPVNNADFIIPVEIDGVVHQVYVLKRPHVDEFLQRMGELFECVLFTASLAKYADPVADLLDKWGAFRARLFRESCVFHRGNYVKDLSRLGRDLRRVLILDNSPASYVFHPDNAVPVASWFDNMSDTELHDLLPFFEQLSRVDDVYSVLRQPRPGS
The experiment in a line: Effect of RAP74 on CTD phosphatase activity of SCP1. Type of series: biochemical. To be noted: 7 pmol RAP74, 14.4 fmol RNAP IIO prepared by TFIIH. As to the method:
Increasing amounts of the indicated forms of SCP1 and SCP2 were assayed in the presence of 14.4 fmol RNAP. IIO prepared by TFIIH. Reactions were carried out in the presence and in the absence of 7 pmol RAP74.
as §1

The next series deals with T3, GST-SCP1 (Homo sapiens, UniProt Q9GZU7).
T3 construct: made in house
T3 sequence (Q9GZU7 1-261): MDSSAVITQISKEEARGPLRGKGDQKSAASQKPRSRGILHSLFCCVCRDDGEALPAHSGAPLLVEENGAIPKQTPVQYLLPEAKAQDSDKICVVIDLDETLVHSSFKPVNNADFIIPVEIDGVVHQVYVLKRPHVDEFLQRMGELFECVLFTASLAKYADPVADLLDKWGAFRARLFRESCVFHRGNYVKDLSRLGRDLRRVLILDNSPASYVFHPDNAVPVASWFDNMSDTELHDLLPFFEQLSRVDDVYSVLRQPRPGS
T3 sequence (P35269 1-517 partner): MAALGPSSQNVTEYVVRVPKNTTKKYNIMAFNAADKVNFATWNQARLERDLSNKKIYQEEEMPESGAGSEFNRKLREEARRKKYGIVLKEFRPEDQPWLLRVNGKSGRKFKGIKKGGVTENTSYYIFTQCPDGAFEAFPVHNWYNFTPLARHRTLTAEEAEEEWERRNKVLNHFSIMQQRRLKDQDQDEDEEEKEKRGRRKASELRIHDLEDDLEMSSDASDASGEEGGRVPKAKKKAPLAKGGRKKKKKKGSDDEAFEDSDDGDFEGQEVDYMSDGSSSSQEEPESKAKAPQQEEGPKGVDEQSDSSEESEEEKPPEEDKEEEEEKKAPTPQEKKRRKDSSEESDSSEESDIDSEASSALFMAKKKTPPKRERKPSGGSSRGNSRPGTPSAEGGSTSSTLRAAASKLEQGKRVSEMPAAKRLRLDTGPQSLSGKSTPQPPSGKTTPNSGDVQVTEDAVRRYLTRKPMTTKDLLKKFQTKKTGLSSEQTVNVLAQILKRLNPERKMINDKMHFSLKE
In words: Binding of RAP74 to GST-SCP1. To be noted: not to GST.

B1: mutant SCP1: D96E, D98N phosphatase-inactive dominant negative mutant of SCP1 261, SEQ ID NO:10 (protein)
chain: T2 sequence (Q9GZU7 1-260 isoform Q9GZU7-2) with D95E, D97N
modifications: Drosophila
Consider B1, for which, in [1], the phosphatase activity entry is “inactive”. The “CTD phosphatase activity on GST-CTDo and RNAP IIO” value with RNAP IIO is “lacked activity on either substrate”. Moreover, the “increase of luciferase activity” value in series [2] is 1.5- to 6 fold. Further, the “enhancement of Gal 4-VP16 stimulated activity” value in series [3] was “about 2 fold”. The “ligand-activated T3 receptor activity” value in [4] was “enhanced”. Moreover, in series [5], the “dexamethasone-stimulated glucocorticoid receptor activity” value is listed as “significantly enhanced”. Also, the “ligand-activated PPARγ receptor activity” value in [6] was “enhanced”. Further, the “increase of the extent of precursor differentiation into neurons” value in series [7] is reported as > 2 fold.

B2: RAP74: RAP74 subunit of TFIIF (protein)
chain: T3 sequence (P35269 1-517 partner)
On to B2, for which, in the series with SCP1, the “shift of the dose response curve for SCP1 catalyzed dephosphorylation of RNAP IIO to lower concentration” value is “approximately 10 fold”. Also, in the series with GST-SCP1, the “binding to GST-SCP1” value is listed as “bound directly”.
